Here are results for 1 substance from PMC7429351, “Comparison of ligand binding and conformational stability of human calmodulin with its homolog from the malaria parasite Plasmodium falciparum” (FASEB BioAdvances, 2020).

Assay [1] deals with Calcineurin (PPase-2B, CaN) (bovine).
For assay [2], the target named is Myosin light chain kinase (MLCK), human, recombinant, GST-tagged (human) (UniProt Q15746).
For assay [3], the target named is Phosphodiesterase I, 3',5'-cyclic-nucleotide-specific (PDE) (bovine) (UniProt P14100).
Chain of Phosphodiesterase I, 3',5'-cyclic-nucleotide-specific (PDE) (bovine) (P14100 whole entry): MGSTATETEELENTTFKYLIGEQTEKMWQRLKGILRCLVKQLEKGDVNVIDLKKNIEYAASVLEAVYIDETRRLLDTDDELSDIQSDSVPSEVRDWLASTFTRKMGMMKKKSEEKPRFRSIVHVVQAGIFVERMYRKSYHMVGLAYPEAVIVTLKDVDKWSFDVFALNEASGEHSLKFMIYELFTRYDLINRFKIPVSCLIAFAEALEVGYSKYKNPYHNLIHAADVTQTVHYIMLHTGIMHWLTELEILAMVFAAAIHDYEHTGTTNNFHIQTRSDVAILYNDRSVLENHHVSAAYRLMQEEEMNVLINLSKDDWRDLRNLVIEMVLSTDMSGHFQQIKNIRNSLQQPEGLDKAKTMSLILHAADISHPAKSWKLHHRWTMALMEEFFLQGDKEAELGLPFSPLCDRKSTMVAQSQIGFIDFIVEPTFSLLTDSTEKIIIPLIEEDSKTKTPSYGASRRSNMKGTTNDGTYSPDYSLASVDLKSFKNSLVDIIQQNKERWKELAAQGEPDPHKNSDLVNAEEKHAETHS

Chain of Myosin light chain kinase (MLCK), human, recombinant, GST-tagged (human) (Q15746 whole entry): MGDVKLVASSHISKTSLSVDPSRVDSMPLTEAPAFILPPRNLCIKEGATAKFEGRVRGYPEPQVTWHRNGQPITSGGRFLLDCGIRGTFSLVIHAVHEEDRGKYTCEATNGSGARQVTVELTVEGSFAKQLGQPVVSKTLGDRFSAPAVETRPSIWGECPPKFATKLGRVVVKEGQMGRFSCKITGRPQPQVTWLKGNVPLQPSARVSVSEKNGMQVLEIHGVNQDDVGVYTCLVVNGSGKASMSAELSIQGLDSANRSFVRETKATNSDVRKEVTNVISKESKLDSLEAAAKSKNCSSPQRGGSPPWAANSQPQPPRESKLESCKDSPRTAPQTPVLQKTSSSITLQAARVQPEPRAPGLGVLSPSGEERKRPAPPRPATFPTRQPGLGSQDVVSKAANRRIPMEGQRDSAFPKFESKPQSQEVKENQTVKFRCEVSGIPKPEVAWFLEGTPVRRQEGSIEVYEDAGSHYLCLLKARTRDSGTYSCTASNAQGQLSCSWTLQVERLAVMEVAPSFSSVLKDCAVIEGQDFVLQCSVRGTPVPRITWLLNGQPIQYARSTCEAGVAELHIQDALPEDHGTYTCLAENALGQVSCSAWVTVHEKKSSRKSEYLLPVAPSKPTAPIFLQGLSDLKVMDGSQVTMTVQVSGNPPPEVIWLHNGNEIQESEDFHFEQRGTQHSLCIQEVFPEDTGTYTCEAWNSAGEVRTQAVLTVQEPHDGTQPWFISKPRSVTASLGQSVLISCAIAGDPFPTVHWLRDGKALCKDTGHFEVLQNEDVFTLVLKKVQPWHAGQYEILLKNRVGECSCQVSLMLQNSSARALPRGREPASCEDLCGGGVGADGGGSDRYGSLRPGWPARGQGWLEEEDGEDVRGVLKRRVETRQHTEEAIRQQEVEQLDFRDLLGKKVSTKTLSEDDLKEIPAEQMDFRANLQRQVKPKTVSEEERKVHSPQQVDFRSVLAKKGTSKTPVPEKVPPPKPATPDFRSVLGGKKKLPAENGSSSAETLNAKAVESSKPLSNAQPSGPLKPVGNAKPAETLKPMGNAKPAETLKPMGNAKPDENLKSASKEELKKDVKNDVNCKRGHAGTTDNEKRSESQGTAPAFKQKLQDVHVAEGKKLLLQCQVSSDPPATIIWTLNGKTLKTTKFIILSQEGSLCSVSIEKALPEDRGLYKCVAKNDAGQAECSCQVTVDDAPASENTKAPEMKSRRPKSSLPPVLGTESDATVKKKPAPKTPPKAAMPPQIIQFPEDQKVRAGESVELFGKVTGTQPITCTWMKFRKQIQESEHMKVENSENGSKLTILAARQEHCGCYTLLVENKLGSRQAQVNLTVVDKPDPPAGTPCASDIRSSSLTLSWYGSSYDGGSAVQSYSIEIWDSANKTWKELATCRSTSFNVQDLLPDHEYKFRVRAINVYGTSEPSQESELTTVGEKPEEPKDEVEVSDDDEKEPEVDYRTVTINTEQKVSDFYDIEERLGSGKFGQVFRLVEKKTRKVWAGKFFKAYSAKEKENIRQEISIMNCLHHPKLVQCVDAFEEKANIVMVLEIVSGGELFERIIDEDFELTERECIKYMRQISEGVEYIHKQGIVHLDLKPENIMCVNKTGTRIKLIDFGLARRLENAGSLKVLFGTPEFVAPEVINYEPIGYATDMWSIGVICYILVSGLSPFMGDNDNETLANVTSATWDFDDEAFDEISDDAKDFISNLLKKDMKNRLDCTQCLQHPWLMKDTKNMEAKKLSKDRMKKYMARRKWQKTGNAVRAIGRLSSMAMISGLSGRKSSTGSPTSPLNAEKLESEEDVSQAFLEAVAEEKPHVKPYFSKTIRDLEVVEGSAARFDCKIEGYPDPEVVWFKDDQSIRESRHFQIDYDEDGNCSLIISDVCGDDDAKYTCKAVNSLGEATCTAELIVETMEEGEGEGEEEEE

As for “Human recombinant calmodulin (CaM) (from UniProt P0DP23 1-149) (natural protein)”, in assay [1], the activation of CaN phosphatase activity (PNPP dephosphorylation) by CaM, fold over the basal activity is 2.34 fold and the activation of CaN phosphatase activity (PNPP dephosphorylation, 28°C) against the CaM concentration, EC50 was determined as 0.67 nM. Besides, the activation of MLCK kinase activity (ADP-Glo luminescence, room temperature, 0.5 mmol/L CaCl2) against the CaM concentration, EC50 in assay [2] is 5.6 nM. Also, the activation of PDE activity (mant-cGMP hydrolysis, 25°C, 150 nmol/L CaM, 6.5 nmol/L PDE, 1 mmol/L CaCl2), fold over the basal activity in assay [3] was 2 fold.
